Test results taken from patent publication US12643935B2, “PD-L1 binding peptides” (UNIVERSITY OF SOUTHERN CALIFORNIA, priority 2020, dated 2026).
Entries after “also recorded” stand apart in the source; their conditions may differ.

Experiments:
[1] = target: T1, hPD-L1 (Homo sapiens, UniProt Q9NZQ7); experiment: Radioactive competition assay: [35S]-SPAM binding to immobilized hPD-L1 with competitor; conditions: 5 μM competitor
T1 construct: designed from A18 to T239 with a methionine added to the N-terminus; hexahistidine tag (C); made in house
Method: For radioactive competition assays, hPD-L1-immobilized streptavidin agarose beads were preincubated with the desired competitor for one hour at 4° C. followed by addition of the radiolabeled peptide for 1 h. The ratio of the counts remaining on the beads to the total counts added to the binding reaction was calculated to determine the percent bound.

[2] = target: T1, hPD-L1; experiment: Surface plasmon resonance of mPD-1 on immobilized hPD-L1; conditions: SPR, 25° C., one-site saturation binding model; read-out: dissociation constant (KD) hPD-L1/mPD-1
Method: In order to confirm that the expressed hPD-L1 was correctly folded, binding to mPD-1 was measured by SPR. The dissociation constant (KD) between recombinant hPD-L1 and PD-1 was determined to be 3.2±0.3 μM using a one-site saturation binding model (FIG. 7).
SPR analysis was performed on a Biacore T-100 at the USC Nanobiophysics core. E. coli expressed biotinylated hPD-L1 was immobilized onto a sensor chip SA (GE Healthcare Life Sciences) and different concentrations (from 1.5×10^−7 to 2.9×10^−5 M) of mPD-1 was flowed over the chip at a rate of 50 μL/min for 60 seconds in a buffer consisting of 50 mM HEPES-KOH pH 7.5, 150 mM NaCl, 0.05% (v/v) Tween-20 and 1 mg/mL BSA at 25° C. The response values were fit to a one-site saturation binding model in GraphPad Prism to obtain an equilibrium binding constant.

Kd [2]: ~3000 nM
B1: mPD-1: murine variant of PD-1, recombinant extracellular domain with HA tag and His tag (protein)
chain: MALEVPNGPWRSLTFYPAWLTVSEGANATFTCSLSNWSEDLMLNWNRLSPSNQTEKQAAFSNGLSQPVQDARFQIIQLPNRHDFHMNILDTRRNDSGIYLCGAISLHPKAKIEESPGAELVVTERILETSTRYPSGGYPYDVPDYALEHHHHHH
modifications: HA tag and His tag
notes: murine variant of PD-1, recombinant extracellular domain with HA tag and His tag
effect on [35S]-SPAM binding to immobilized hPD-L1 [1]: significantly inhibited; also recorded: disrupted
